Test results taken from publication PMC4230619 (Molecular Biology of the Cell, 2014).

Target: the molecule itself
Assay: single-molecule TIRF step-intensity counting in live cells

B1: dynamin2-EGFP (natural protein, human (endogenous in SUM159), UniProt P50570 1-870, looked up)
chain: MGNRGMEELIPLVNKLQDAFSSIGQSCHLDLPQIAVVGGQSAGKSSVLENFVGRDFLPRGSGIVTRRPLILQLIFSKTEHAEFLHCKSKKFTDFDEVRQEIEAETDRVTGTNKGISPVPINLRVYSPHVLNLTLIDLPGITKVPVGDQPPDIEYQIKDMILQFISRESSLILAVTPANMDLANSDALKLAKEVDPQGLRTIGVITKLDLMDEGTDARDVLENKLLPLRRGYIGVVNRSQKDIEGKKDIRAALAAERKFFLSHPAYRHMADRMGTPHLQKTLNQQLTNHIRESLPALRSKLQSQLLSLEKEVEEYKNFRPDDPTRKTKALLQMVQQFGVDFEKRIEGSGDQVDTLELSGGARINRIFHERFPFELVKMEFDEKDLRREISYAIKNIHGVRTGLFTPDLAFEAIVKKQVVKLKEPCLKCVDLVIQELINTVRQCTSKLSSYPRLREETERIVTTYIREREGRTKDQILLLIDIEQSYINTNHEDFIGFANAQQRSTQLNKKRAIPNQGEILVIRRGWLTINNISLMKGGSKEYWFVLTAESLSWYKDEEEKEKKYMLPLDNLKIRDVEKGFMSNKHVFAIFNTEQRNVYKDLRQIELACDSQEDVDSWKASFLRAGVYPEKDQAENEDGAQENTFSMDPQLERQVETIRNLVDSYVAIINKSIRDLMPKTIMHLMINNTKAFIHHELLAYLYSSADQSSLMEESADQAQRRDDMLRMYHALKEALNIIGDISTSTVSTPVPPPVDDTWLQSASSHSPTPQRRPVSSIHPPGRPPAVRGPTPGPPLIPVPVGAAASFSAPPIPSRPGPQSVFANSDLFPAPPQIPSRPVRIPPGIPPGVPSRRPPAAPSRPTIIRPAEPSLLD
stoichiometry N: 2
